Measurements published in US20100086997A1 (published 2010).

B4: Fc-fused recombinant human P75 (Fc fusion, UniProt P08138 29-250, looked up)
chain: KEACPTGLYTHSGECCKACNLGEGVAQPCGANQTVCEPCLDSVTFSDVVSATEPCKPCTECVGLQSMSAPCVEADDAVCRCAYGYYQDETTGRCEACRVCEAGSGLVFSCQDKQNTVCEECPDGTYSDEANHVDPCLPCTVCEDTERQLRECTRWADAECEEIPGRWITRSTPPEGSDSTAPSTQEPEAPPEQDLIASTVAGVVTTVMGSSQPVVTRGTTDN
notes: Bought from R&D Systems or made in-house; also called p75 neurotrophin receptor; LNGFR; not shown: Fc part

Assays:
Test in all cases: SPR (Biacore 3000), Fc-fused receptor amine-coupled to CM5 chip, ligand in solution, 25 C
[1] = biological target: T1, Fc-fused recombinant human TrkC (human, UniProt Q16288 32-429)
T1 construct: Bought from R&D Systems or made in-house; not shown: Fc part
Method: (§1) A standard amine-coupling protocol was used in HBS-EP running buffer at 5 μl/min and involved three steps. […]. First, flow cells were activated with a 7-minute injection of a freshly prepared mixture of 200 mM EDC in 50 mM NHS; this step converted the chip's carboxylic acid groups to reactive esters. Next, receptors were diluted to ˜10 μg/mL in 10 mM sodium acetate buffer at pH 4.5 and coupled to the chip until the desired level had been reached. Finally, excess reactive esters were blocked with a 7-minute injection of 1M sodium ethanolamine-HCl (pH 8.5).
(§2) The Fab fragment of antibody 200.38B8 (38B8) was diluted from 0.7-480 nM in 3-fold increments. Samples were injected for 30 seconds at 100 μl/min allowing dissociation times of up to 10 mins. After each binding cycle, receptor surfaces were regenerated with a mildly acidic cocktail (10 mM glycine-HCl (pH 4.0), 500 mM NaCl, and 20 mM EDTA). […] Kinetic rate constants (kon and koff) were determined by fitting the binding data globally to a mass transport model and binding affinities were calculated from their ratio, KD=koff/kon.

[2] = biological target: B4
Method: as §1, §2

[3] = biological target: T2, human TrkB-Fc fusion protein (human, UniProt Q16620 32-430)
T2 construct: Bought from R&D Systems or made in-house; also called HuTrkB; Fc-fused recombinant human TrkB; not shown: Fc part
T2 sequence (Q16620 32-430 limits assumed): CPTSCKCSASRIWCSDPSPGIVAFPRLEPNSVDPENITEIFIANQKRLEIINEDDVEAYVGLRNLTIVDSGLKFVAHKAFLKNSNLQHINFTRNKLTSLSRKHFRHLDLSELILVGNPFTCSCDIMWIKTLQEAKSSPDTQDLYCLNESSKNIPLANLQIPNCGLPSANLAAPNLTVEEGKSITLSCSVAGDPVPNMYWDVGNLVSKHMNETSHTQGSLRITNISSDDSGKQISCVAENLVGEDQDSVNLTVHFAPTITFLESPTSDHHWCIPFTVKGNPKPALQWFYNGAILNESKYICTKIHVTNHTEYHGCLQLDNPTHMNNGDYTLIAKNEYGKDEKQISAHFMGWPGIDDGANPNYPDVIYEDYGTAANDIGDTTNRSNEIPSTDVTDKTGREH
Method: as §1, §2

[4] = biological target: T3, Fc-fused recombinant human TrkA (human, UniProt P04629-2 33-407, limits assumed)
T3 construct: Bought from R&D Systems or made in-house; not shown: Fc part
T3 sequence (P04629 other isoform, or with tags, fused parts or gaps limits assumed): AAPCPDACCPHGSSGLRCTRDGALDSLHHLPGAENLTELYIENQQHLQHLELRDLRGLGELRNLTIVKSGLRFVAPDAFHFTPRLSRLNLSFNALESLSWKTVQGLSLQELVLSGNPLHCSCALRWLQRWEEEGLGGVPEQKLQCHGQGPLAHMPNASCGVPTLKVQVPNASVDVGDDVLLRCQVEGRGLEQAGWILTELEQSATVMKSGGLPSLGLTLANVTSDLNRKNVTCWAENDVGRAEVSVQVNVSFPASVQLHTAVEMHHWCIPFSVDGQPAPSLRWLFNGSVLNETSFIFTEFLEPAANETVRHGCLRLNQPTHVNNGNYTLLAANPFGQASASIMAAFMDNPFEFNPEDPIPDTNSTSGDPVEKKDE
Method: as §1, §2

ProNGF = ProNGF (UniProt P01138 19-241)
Chain of ProNGF (P01138 19-241): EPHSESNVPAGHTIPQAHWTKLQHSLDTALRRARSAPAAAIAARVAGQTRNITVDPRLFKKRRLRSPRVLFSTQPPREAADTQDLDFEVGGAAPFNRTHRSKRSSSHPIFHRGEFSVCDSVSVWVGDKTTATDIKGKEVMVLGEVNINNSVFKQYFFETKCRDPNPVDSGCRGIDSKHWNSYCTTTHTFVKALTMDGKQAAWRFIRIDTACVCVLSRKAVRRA
Method: as §1, §2

B1: NT4/5 (ligand, UniProt P34130 81-210, looked up)
chain: GVSETAPASRRGELAVCDAVSGWVTDRRTAVDLRGREVEVLGEVPAAGGSPLRQYFFETRCKADNAEEGGPGAGGGGCRGVDRRHWVSECKAKQSYVRALTADAQGRVGWRWIRIDTACVCTLLSRTGRA
- binding result [1]: no binding (tested: 0.08-250 nM)
- Kd [2]: 88 nM
- koff [2]: 0.305 s⁻¹
- kon [2]: 3.45e+06 M⁻¹ s⁻¹
- Kd [3]: < 0.2 nM
- koff [3]: 0.002 s⁻¹
- kon [3]: > 1e+07 M⁻¹ s⁻¹
- Kd [4]: 17 nM
- koff [4]: 0.04 s⁻¹
- kon [4]: 2.1e+06 M⁻¹ s⁻¹

B2: NT3 (ligand, UniProt P20783 139-257, looked up)
chain: YAEHKSHRGEYSVCDSESLWVTDKSSAIDIRGHQVTVLGEIKTGNSPVKQYFYETRCKEARPVKNGCRGIDDKHWNSQCKTSQTYVRALTSENNKLVGWRWIRIDTSCVCALSRKIGRT
notes: 'native ligands' bought from R&D Systems or made in-house
- Kd [3]: < 4.4 nM

B3: brain-derived neurotrophic factor (BDNF) (ligand, UniProt P23560 129-247, looked up)
chain: HSDPARRGELSVCDSISEWVTAADKKTAVDMSGGTVTVLEKVPVSKGQLKQYFYETKCNPMGYTKEGCRGIDKRHWNSQCRTTQSYVRALTMDSKKRIGWRFIRIDTSCVCTLTIKRGR
- Kd [2]: < 2.1 nM
- Kd [3]: < 0.034 nM

Binder: B4
- Kd (ProNGF): 130 nM
- koff (ProNGF): 0.0858 s⁻¹
- kon (ProNGF): 658000 M⁻¹ s⁻¹
